Where two headings read alike, the source gives them in different places.
T1: human PVRIG on cells (human, UniProt Q6DKI7 1-326)
T1 construct: whole, on cells; over-expressed on HEK cells or endogenous on Jurkat and CD8 T cells; also called hPVRIG; HEK hPVRIG cells
T1 sequence (looked up): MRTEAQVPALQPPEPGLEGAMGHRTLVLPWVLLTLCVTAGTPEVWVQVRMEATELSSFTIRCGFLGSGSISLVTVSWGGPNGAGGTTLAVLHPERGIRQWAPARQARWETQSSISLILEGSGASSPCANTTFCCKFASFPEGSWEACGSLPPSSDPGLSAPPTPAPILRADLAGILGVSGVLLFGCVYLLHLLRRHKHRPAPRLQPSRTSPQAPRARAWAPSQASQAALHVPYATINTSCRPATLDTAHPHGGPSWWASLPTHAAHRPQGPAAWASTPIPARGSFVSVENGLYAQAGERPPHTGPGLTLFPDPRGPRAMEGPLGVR

T2: cynomolgus PVRIG on cells (cynomolgus, UniProt A0A2K5WVV8 41-322)
T2 construct: whole, on cells; also called cPVRIG; expi cPVRIG cells
T2 sequence: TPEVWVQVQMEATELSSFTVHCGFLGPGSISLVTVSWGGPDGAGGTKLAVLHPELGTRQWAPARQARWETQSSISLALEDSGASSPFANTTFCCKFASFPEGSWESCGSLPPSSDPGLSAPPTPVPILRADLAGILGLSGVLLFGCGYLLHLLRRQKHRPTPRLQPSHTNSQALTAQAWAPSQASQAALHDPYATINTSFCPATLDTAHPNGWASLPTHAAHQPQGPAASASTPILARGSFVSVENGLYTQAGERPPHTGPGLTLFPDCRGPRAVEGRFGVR

T3: PVRIG (FACS-based competition assay of FIGS. 7 and 15) (Homo sapiens, UniProt Q6DKI7)
T3 construct: made because the format of the assay is only described in U.S. Ser. No. 15/048,967; also called human PVRIG
T3 sequence (receptor, looked up): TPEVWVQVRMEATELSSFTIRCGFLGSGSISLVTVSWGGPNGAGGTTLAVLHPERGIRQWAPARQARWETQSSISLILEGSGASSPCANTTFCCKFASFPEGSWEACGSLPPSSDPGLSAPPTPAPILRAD

T4: human TIGIT on cells (human, UniProt Q495A1 22-141)
T4 construct: also called Expi293 human TIGIT over-expressing cells
T4 sequence: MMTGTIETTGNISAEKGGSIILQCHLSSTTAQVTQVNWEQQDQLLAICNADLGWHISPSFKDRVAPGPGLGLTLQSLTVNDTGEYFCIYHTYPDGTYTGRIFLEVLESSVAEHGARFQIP


Legend:
[1] = biological target: T1, human PVRIG on cells; assay: FACS, HEK hPVRIG cells (HEK OE)
[2] = biological target: T1, human PVRIG on cells; assay: FACS, human PBMC, CD8+ T cells, 10ug/ml
[3] = biological target: T1, human PVRIG on cells; assay: FACS, human PBMC, CD8+ T cells, 10ug/ml; remark: listed apart in the source
[4] = biological target: T1, human PVRIG on cells; assay: FACS, human PBMC, CD56 int. NK cells, 10ug/ml
[5] = biological target: T1, human PVRIG on cells; assay: FACS, human PBMC, CD56 int. NK cells, 10ug/ml; remark: listed apart in the source
[6] = biological target: T1, human PVRIG on cells; assay: FACS, Jurkat cells, relative to control, 3.3ug/ml
[7] = biological target: T1, human PVRIG on cells; assay: FACS, HEK hPVRIG over HEK parental cells, 3.3ug/ml
[8] = biological target: T2, cynomolgus PVRIG on cells; assay: FACS, expi cPVRIG over expi parental cells, 3.3ug/ml
[9] = biological target: T2, cynomolgus PVRIG on cells; assay: as above; remark: listed apart in the source
[10] = biological target: T3, PVRIG (FACS-based competition assay of …); assay: FACS-based competition assay of PVRIG blocking; format and competitor not given
[11] = biological target: T3, PVRIG (FACS-based competition assay of …); assay: as above; remark: listed apart in the source
[12] = biological target: T4, human TIGIT on cells; assay: flow cytometry of fab; MFI on human TIGIT over-expressing Expi293 / MFI on parental Expi293
[13] = biological target: T1, human PVRIG on cells; assay: FACS, human PBMC, CD8+ T cells, 10ug/ml; remark: listed apart in the source
[14] = biological target: T1, human PVRIG on cells; assay: FACS, human PBMC, CD56 int. NK cells, 10ug/ml; remark: listed apart in the source
[15] = biological target: T2, cynomolgus PVRIG on cells; assay: FACS, expi cPVRIG over expi parental cells, 3.3ug/ml; remark: listed apart in the source

Row | Binder | EC50 [1] [nM] | gMFIr Human CD8+ T cells [2] | gMFIr Human CD8+ T cells [3] | gMFIr Human CD56 int. NK [4] | gMFIr Human CD56 int. NK [5] | gMFIr Jurkat [6] | gMFIr HEK OE/par [7] | gMFIr Expi cyno OE/par [8] | gMFIr Expi cyno OE/par [9] | IC50 [10] [nM] | IC50 [11] [nM] | MFIr (OE/Par) hTIGIT [12] | gMFIr Human CD8+ T cells [13] | gMFIr Human CD56 int. NK [14] | gMFIr Expi cyno OE/par [15]
1 | CHA.7.534 (antibody, V domains shown) VH: EVQLQQSGAELVKPGASVRLSCTASGFSIRDTYIHWVKQRPEQGLDWIGKIDPANGKSEYDPKFQGRATMTTDTSSNTAYLQLSSLTSEDTAVYYCTRYGYYPYFDVWGAGTTVTVFS VL: SIVMTQTPKFLLVSAGDRVAITCKASQSVRHDVVWYQQKPGQSPKLLIYYASSRYTGVPDRFTGSGYGTDFTFTISTVQAEDLALYFCLQDFSSPWTFGGGTKLEIK | 1.87 | 1.96 | 1.96 | 2.6 | 2.6 | 5.05 | 43.7 | 46.3 | 46.3 | 181 | 181 |  |  |  | 
2 | CPA.9.059 (Fab, V domains shown, phage fab, campaign 2; fab form of CPA.9.059 hIgG4 (m73); also called CPA.9.059 (fab)) VH: EVQLVETGGGLIQPGGSLRLSCAASGFTVSSNYMSWVRQAPGKGLEWVSVIYSGGSTYYADSVKGRFTISRDNSKNTLYLQMNSLRAEDTAVYYCARGARYSYGQYPYWGQGTLVTVSS VL: DIQLTQSPSFLSASVGDRVTITCRASHDISSLFSWYQQKPGKAPKLLIYAASTLQTGVPSRFSGSASGTEFTLTISSLQPEDFATYYCLQLDSFPTWTFGQGTKVEIK |  |  |  |  |  |  |  |  |  |  |  | 11 |  |  | 
3 | CHA.7.526 (antibody, V domains shown) VH: QVQLKESGPGLVAPSQSLSITCTVSGFSLTAYNINWVRQPPGKGLEWLGMIWGDGNTDYNSPLKSRLTISKDNSKSQVFLKMDSLQTDDTARYYCARDLKVRRDSPYTMDYWGQGTSVTVSS VL: NIMMTQSPSSLAVSAGEKVTMSCKSSQSVLYSSNQKNYLAWYQQKPGQSPKLLIYWASNRESGVPDRFTGSGSGTDFTLTISSVQAEDLAVYYCHQYLSSYTFGGGTKLEIK | 2.99 | 1.71 | 1.71 | 2.08 | 2.08 | 3.98 | 47.3 | 0.79 | 0.79 | 58.9 | 58.9 |  |  |  | 
4 | CPA.9.018 (Fab, V domains shown, phage fab, campaign 1; fab form of CPA.9.018-H4; also called CPA.9.018 (fab)) VH: QVQLVESGGGLVQPGGSLRLSCAASGFTFSSYGMHWVRQAPGKGLEWVAFIRYDGSNKYYADSVKGRFTISRDNSKNTLYLQMNSLRAEDTAVYYCAKEMLVQDYYYMDVWGQGTTVTVSS VL: DVVMTQSPLSLPVSPGEPASISCRSSQNLLHRNGINYLNWYLQKPGQSPQLLIYWGSNRASGVPDRFSGSGSGTDFTLKISRVEAEDVGVYYCMQGLQIPPTFGQGTKVDIK |  |  |  |  |  |  |  |  |  |  |  | 16 |  |  | 
5 | CHA.7.502 (antibody, V domains shown) VH: DVQLVESGGDLVQPGGSRKLSCTASGFTFSNFGMHWVRQAPEKGLEWVAYISSGSSTIYYADTVKGRFTISRDNPENTLFLQMTSLRSEDTAMYYCTRLDYYTNSYSMDHWGQGTSVTVSS VL: QIVLTQSPALMSASPGEKVTLTCSASSSLPYIYWYQQKPGSSPKPWIYLTSNLASGVPARFSGSRSGTSYSLTISSVEAEDAATYYCQQWSSNPFTFGSGTKLEIK | 40.2 |  | 1.41 |  | 1.97 | 6.21 | 72 |  | 60.5 | 39.9 | 39.9 |  | 1.41 | 1.97 | 60.5
6 | CHA.7.506 (antibody, V domains shown) VH: QVQLQQSGAELTRPGASVNLSCKASGYTFTSYWMQWVKQRPGQGLEWIGAIYPGDGDTRFNQKFKGKATLTADESSSTAYMQLSSLASEDSAVYYCATYYRYDDYWGQGTTLTVSS VL: QIVLTQSPAIMSASPGEKVTMTCSASSSVSYMHWYQQKSGTSPKRWIYDTSKLASGVPTRFSGSGSGTSYSLTISSMEAEDAATYYCQQWSSNPYTFGGGTKLEIK |  |  |  |  |  |  | 0.76 |  | 0.77 | 31.6 | 31.6 |  |  |  | 0.77
7 | CHA.7.508 (antibody, V domains shown) VH: EVQLQQSGPDLVKPGASMKISCKASGYTFIDYNIHWVKQSQGKSLDWIGYIYPYNGGTGYNQKFKNKATLTVDSSSSTAYMEVRSLTFEDSAVYFCAREADYYGNRGQFDYWGQGTLVTVSA VL: DIQMTQSPASLSVSVGETVTITCRASENIFSNLAWYQQKQGKSPQLLVYGEANLADGVPSRFSGSGSGTQYSLKINSLQSEDFGNYYCQHFWGTPYTFGGGTTLEIK | 3.3 |  | 4.09 |  | 3.6 | 6.5 | 45.9 |  | 41.5 | 37.9 | 37.9 |  | 4.09 | 3.6 | 41.5
8 | CHA.7.535 (antibody, V domains shown) VH: EVQLQQSGPELVKPGASVKISCKTSGYTFTKNTMHWVRQSHGKSLEWIGGINPNSGGASFNQKFMGKATLTVDKSSSTAYMELRSLTSEDSAVYYCARDGYDGDWFFDVWGAGTTVTVSS VL: DIQMNQSPFSLSASLGDTVTITCHASQNIYVWLSWYQQKPGNIPKLLIYKASDLHTGVPSRFSGSGSGTDFTLNISSLQPEDIATYYCQQGQSYPRTFGGGTKLEIK | 3.67 | 1.28 | 1.28 | 2.24 | 2.24 | 2.79 | 40.4 | 0.82 | 0.82 | 821 | 821 |  |  |  | 
9 | CPA.9.057 (Fab, V domains shown, phage fab, campaign 2; fab form of CPA.9.057-H4; also called CPA.9.057 (fab)) VH: QVQLQESGPGLVKPSETLSLTCTVSGGSISSSSYYWGWIRQPPGKGLEWIGSIYYSGSTYYNPSLKSRVTISVDTSKNQFSLKLSSVTAADTAVYYCARQGAAAGNPFDIWGQGTMVTVSS VL: QSVLTQPPSVSGTPGQRVTISCSGSSSNIGSNFVYWHQQLTGTAPKLLIYRNTQRPSGVPDRFSGSKSGTSASLAIGGLRSEDEADYYCATWDDSLSAWVFGGGTKLTVL |  |  |  |  |  |  |  |  |  |  |  | 30 |  |  | 
10 | CHA.7.503 (antibody, V domains shown) VH: QVQLQQSGAELAKPGASVKMSCKASGYTFTSNWMHWVKQRPGQGLEWIGYINPSNGYTECNQKFRDKATLSADKSSSTAYMQLNSLTSADSAVYYCALMISAWLPYWGQGTLVTVSA VL: DIVLTQSPASLAISLGQRATISCRASQSVSASSYSYVHWYQQKPGQPPKLLIKYASSLESGVPARFSGSGSGTDFTLNIHPVEEEDTATYYCLHTWEIPYTFGGGTKLEIK | 1.05 |  | 1.96 |  | 3.15 | 23.6 | 261 |  | 106 |  |  |  | 1.96 | 3.15 | 106

Reference: US20240075137A1 (COMPUGEN, published 2024)
